From US20210196796A1 (SYNTHEKINE, published 2021)
Where a chain is given by its changes, count along the chain named. In names and notes the source's numbering stands.

B1: SQVLVA (ligand)
chain: APTSSSTKKTQLQLSQLLVLLVAILNGINNYKNPKLTRMLTFKFYMPKKATELKHLQCLEEELKPLEEVLNLAQSKNFHLRPRDLISNINVIVLELKGSETTFMCEYADETATIVEFLNRWITFCQSIISTLT
B2: SQVLKF (ligand)
chain: B1 chain with V22K, A23F
B3: SQVLRA (ligand)
chain: B1 chain with V22R
B4: SQVLYA, E116G (ligand)
chain: B1 chain with V22Y
B5: SQVLKY (ligand)
chain: B1 chain with V22K, A23Y
B6: SQVLDA (ligand)
chain: B1 chain with V22D
B7: SQVLKQ (ligand)
chain: B1 chain with V22K, A23Q
B8: SQVLNA (ligand)
chain: B1 chain with V22N
B9: SQVLKH (ligand)
chain: B1 chain with V22K, A23H
B10: SQVLIA (ligand)
chain: B1 chain with V22I
B11: SQVLTA (ligand)
chain: B1 chain with V22T
B12: SQVLKW (ligand)
chain: B1 chain with V22K, A23W
B13: SQVLHA (ligand)
chain: B1 chain with V22H
B14: ΔM23, SQVLK- (ligand)
chain: APTSSSTKKTQLQLSQLLVLLKILNGINNYKNPKLTRMLTFKFYMPKKATELKHLQCLEEELKPLEEVLNLAQSKNFHLRPRDLISNINVIVLELKGSETTFMCEYADETATIVEFLNRWITFCQSIISTLT

biological target: T1, orthogonal hCD122 receptor (hoRb), hCD122 with H133D and Y134F (human, UniProt P14784 27-550); assay: cell-based or functional assay
T1 sequence: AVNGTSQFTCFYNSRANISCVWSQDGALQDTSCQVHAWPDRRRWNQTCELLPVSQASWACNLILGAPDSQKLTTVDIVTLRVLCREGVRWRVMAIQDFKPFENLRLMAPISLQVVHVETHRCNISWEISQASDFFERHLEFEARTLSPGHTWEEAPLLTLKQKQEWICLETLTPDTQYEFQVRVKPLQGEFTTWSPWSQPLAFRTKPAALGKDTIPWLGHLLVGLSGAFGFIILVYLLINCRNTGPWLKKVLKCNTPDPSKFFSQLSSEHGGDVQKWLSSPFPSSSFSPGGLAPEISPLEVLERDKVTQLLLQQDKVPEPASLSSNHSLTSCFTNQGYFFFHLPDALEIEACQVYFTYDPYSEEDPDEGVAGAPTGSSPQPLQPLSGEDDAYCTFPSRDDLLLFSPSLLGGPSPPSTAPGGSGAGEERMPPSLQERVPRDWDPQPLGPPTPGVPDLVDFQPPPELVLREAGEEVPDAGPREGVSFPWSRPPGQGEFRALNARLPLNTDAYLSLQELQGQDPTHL
For Relative Proliferation Fold Change 3F8 1:10 in this document: reference of the scale not given here.
For Relative Proliferation Fold Change 3F8 1:2 in this document: reference of the scale not given here.
For Relative Proliferation Fold Change 3F8 1:50 in this document: reference of the scale not given here.
For Relative Proliferation Fold Change NKL 1:10 in this document: reference of the scale not given here.
For Relative Proliferation Fold Change NKL 1:2 in this document: reference of the scale not given here.
For Relative Proliferation Fold Change NKL 1:50 in this document: reference of the scale not given here.

Binder	NKL Ortho Proliferation Signal 1:2	NKL Ortho Proliferation Signal 1:10	NKL Ortho Proliferation Signal 1:50	Relative Proliferation Fold Change NKL 1:2	Relative Proliferation Fold Change NKL 1:10	Relative Proliferation Fold Change NKL 1:50
B1	10800	8600	6590	0.83 fold	0.62 fold	0.51 fold
B2	65100	44700	23200	3.54 fold	2.5 fold	1.43 fold
B3	60800	68400	34300	4.33 fold	4.06 fold	2.28 fold
B4	13200	11600	8390	1.21 fold	0.83 fold	0.63 fold
B5	52400	43800	21900	3.51 fold	2.64 fold	1.38 fold
B6	35100	22700	11600	2.55 fold	1.65 fold	0.95 fold
B7	74300	82000	49600	4.43 fold	4.61 fold	3.05 fold
B8	50600	36500	17300	4.55 fold	3 fold	1.4 fold
B9	44400	39200	18500	4 fold	2.7 fold	1.49 fold
B10	13000	10700	6780	1.11 fold	0.78 fold	0.53 fold
B11	26400	19400	7650	2.27 fold	1.38 fold	0.6 fold
B12	52000	36000	17900	3.55 fold	2.52 fold	1.33 fold
B13	53000	26000	13300	3.46 fold	1.63 fold	0.87 fold
B14	27600	19000	8950	2.87 fold	1.43 fold	0.73 fold

biological target: T1, orthogonal hCD122 receptor (hoRb), …; assay: cell-based or functional assay; remark: another data set of the same source

Binder	3F8 Ortho Proliferation Signal 1:2	3F8 Ortho Proliferation Signal 1:10	3F8 Ortho Proliferation Signal 1:50	Relative Proliferation Fold Change 3F8 1:2	Relative Proliferation Fold Change 3F8 1:10	Relative Proliferation Fold Change 3F8 1:50
B1	8530 cts/min	5590 cts/min	1850 cts/min	20.2 fold	9.6 fold	2.1 fold
B2	42100 cts/min	48500 cts/min	21000 cts/min	42.8 fold	48.8 fold	17.4 fold
B3	33400 cts/min	32300 cts/min	19600 cts/min	43 fold	38.8 fold	30.2 fold
B4	12500 cts/min	8030 cts/min	2510 cts/min	29.7 fold	9.79 fold	2.73 fold
B5	39100 cts/min	50600 cts/min	24600 cts/min	29.5 fold	50 fold	30.3 fold
B6	33400 cts/min	32300 cts/min	19600 cts/min	43 fold	38.8 fold	30.2 fold
B7	45700 cts/min	64000 cts/min	33100 cts/min	31.1 fold	20 fold	29.5 fold
B8	32600 cts/min	35100 cts/min	19100 cts/min	80.2 fold	56.4 fold	25.8 fold
B9	25700 cts/min	17300 cts/min	18700 cts/min	39.9 fold	14.6 fold	13.7 fold
B10	18600 cts/min	10500 cts/min	3500 cts/min	0.45 fold	1.2 fold	0.77 fold
B11	24100 cts/min	15100 cts/min	6550 cts/min	0.46 fold	10.9 fold	5.95 fold
B12	40800 cts/min	32600 cts/min	20500 cts/min	36 fold	24.7 fold	34.3 fold
B13	32600 cts/min	35100 cts/min	19100 cts/min	80.2 fold	56.4 fold	25.8 fold
B14	6220 cts/min	4410 cts/min	2930 cts/min	12.9 fold	7.97 fold	2.82 fold
